Ten molecules from patent publication US20260028391A1 can be followed below.

Assay [1] addresses RSV fusion glycoprotein (RSV-F) of the RSV used in the neutralization of Table 33 (respiratory syncytial virus, strain not stated). Briefly: cell-based or functional assay.
Assay [2] addresses fusion glycoprotein (F) of the MPV used in the neutralization of Table 34 (metapneumovirus). Briefly: cell-based or functional assay.
The target of assay [3] is MPV F D280N mutant expressed on transfected Expi293F cells (metapneumovirus (MPV)). Briefly: flow cytometry, transfected Expi293F cells, fixed and permeabilised. In general terms: Flow cytometry measures light scatter and fluorescence of single cells or particles in a stream.
Assay [4] deals with MPV F WT expressed on transfected Expi293F cells (metapneumovirus (MPV)). The assay is described as above.
Assay [5] has as its target biot-MPV-F wt (metapneumovirus (MPV)). The experiment in a line: BLI, SA sensor loaded with biot-MPV-F wt, mAb 5 ug/ml, 4 min association, 6 min dissociation. (In general: Biolayer interferometry detects binding as a change in optical thickness at a sensor tip.)
Assay [6] addresses biot-MPV-F D280N (metapneumovirus (MPV)). The experiment in a line: BLI, SA sensor loaded with biot-MPV-F D280N (sheet title 'MPV-G D280N'; head of the value column printed 'MPV-F', not 'KD (M)'), mAb 5 ug/ml, 4 min association, 6 min dissociation.
Assay [7] shares this target. Briefly: BLI (Octet), biotinylated F on SA sensors, mAb 5 µg/ml.
In assay [8] the target is biot-MPV-F wt (metapneumovirus (MPV)). Described as above.
The target in assay [9] is fusion glycoprotein of the RSV used in the neutralization assay of Example 1 (respiratory syncytial virus (strain not stated)). The experiment in a line: cell-based or functional assay.
Assay [10] deals with DS-Cav1 RSV F (respiratory syncytial virus). The experiment in a line: ELISA on DS-Cav1 RSV F. (In general: An ELISA detects its analyte on a solid surface through an enzyme-linked reagent.)
Assay [11] concerns the target MPV fusion glycoprotein with the D280N mutation (MPV-F N280) (metapneumovirus). Briefly: biolayer interferometry (BLI), rIgG1 with M428L/N434S.
In assay [12] the target is MPV fusion glycoprotein without the D280N mutation (MPV-F D280) (metapneumovirus). Described as above.

Numbering of substitutions follows the chain as printed. In names and notes the source's numbering stands.

B1: MPK104-v1.1-rIgG1m17,1-LS (antibody, V domains shown)
VH: QVQLVESGGGLVKPGGSLRLSCAASGFTIDGYGMNWVRQAPGKGLEWVSSISASSNYIYYADSMKGRFTISRDNGKNSLYLQMHSLRVEDTGVYYCARAPLEPPYFDLWGRGTLVTVSS
VL: QSVLTQPPSVSGAPGQRVTISCSGGSSNIGAGYDVHWYQQVPGKGPKVLIYGNNNRPSGVPDRFSGSNFGASASLAITGLQADDEADYFCQSYDRRLGGPVFGGGTKLTVL
In assay [1], B1 showed an IC50 (ng/mL) in neutralization against RSV of 6.61 ng/mL. This molecule showed an IC50 (ng/mL) in neutralization against MPV in [2] of 1.36 ng/mL. Moreover, the Binding (FACS) relative to parental mAb MPK104-v1.1 in assay [3] and in [4] was 1 throughout. In addition, the equilibrium dissociation constant (Kd) (commonly the equilibrium constant for the complex coming apart) is below 0.001 nM in assay [5] and 0.497 nM in assay [6].

B2: MPK104-v1.3-rIgG1m17,1-LS (antibody, V domains shown)
VH: B1 VH
VL: B1 VL with N54T, D83E
Regarding B2, the IC50 (ng/mL) in neutralization against RSV in [1] came out at 4.8 ng/mL. In addition, the IC50 (ng/mL) in neutralization against MPV in [2] turned out to be 1.16 ng/mL. The Kd in assay [7] is 0.37 nM; in assay [8], below 0.001 nM; in assay [5], below 0.001 nM; in assay [6], 0.49 nM. The Binding (FACS) relative to parental mAb MPK104-v1.1 in [3] was determined as 1.1; in assay [4] it was 1.

B3: RSD5-FR-GL-rIgG1 (antibody, V domains shown)
VH: QVQLVESGGGVVQPGRSLRLSCAASGFAFNNFAMHWVRQAPGKGLEWVAVVSYDGTSPYYADSVKGRFTISRDNSKNTLYLQMNSLRAEDTAVYYCARGLGSGSYSWIGYFYAMDVWGQGTTVTVSS
VL: QSALTQPASVSGSPGQSITISCTGTSSDVGGYVYVSWYQQHPGKAPKLMIYDVSNRPSGVSNRFSGSKSGNTASLTISGLQAEDEADYYCISYTDRNTVVFGGGTKLTVL
As for B3, the IC50 (ng/mL) in neutralization against RSV in [1] was found to be 1.2 ng/mL. Besides, the IC50 (ng/mL) in neutralization against MPV in assay [2] is above 2000 ng/mL. This molecule also displayed an RSV Neutralization - IC50 in assay [9] of 5.41 ng/mL.

B4: MPH12 VH-FRGL / MPH12 VL-FRGL-D25E (antibody, V domains shown)
VH: QVQLVESGGGLVKPGGSLRLSCAASGFTFSGFYMKWIRQAPGKGLEWVSSISASGSYTNYADSVEGRFTISRDNAKNSLYLQMNSLRAEDTAVYYCARGDSYCGASACHGEFFHKWGQGTLVTVSS
VL: QSVLTQPPSVSGAPGQRVTISCTGSESNIGADFDVHWYQQLPGTAPKLLIYGNINRPSGVPDRFSGSKSGTSASLAITGLQAEDEADYYCQSYDRSLHYVFGTGTKVTVL
B4: in assay [10], the EC50 (as a rule, the concentration giving half of the maximal effect) was 47.2 ng/mL.

B5: MPH12-v35 (VH-FRGL-D62E/VL-FRGL-D25S) (antibody, V domains shown)
VH: B4 VH with D62E
VL: B4 VL with E26S
Consider B5, for which the Kd in assay [11] is 0.78 nM; in [12], 0.028 nM.

B6: MPH12-v17 (VH-FRGL-D62E/VL-D25S) (antibody, V domains shown)
VH: B4 VH with D62E
VL: B4 VL with E26S, K68R, S74F, G79R, T103A
In [10], B6 came in with an EC50 of 25.1 ng/mL. Further, the equilibrium dissociation constant (Kd) in [11] is 0.55 nM; in assay [12], 0.028 nM.

B7: MPH12-v34 (VH-FRGL-S63A/VL-FRGL-D25S) (antibody, V domains shown)
VH: B4 VH with S63A
VL: B4 VL with E26S
B7: the Kd in [11] worked out at 0.82 nM; in [12], 0.039 nM.

B8: MPH12-v29 (VH-FRGL-D62E/VL-S26A) (antibody, V domains shown)
VH: B4 VH with D62E
VL: B4 VL with E26D, S27A, K68R, S74F, G79R, T103A
As to B8, the EC50 in assay [10] was found to be 42.5 ng/mL. The Kd stood at 0.64 nM in [11] and 0.027 nM in [12].

B9: MPH12 VH-FRGL-S63A / MPH12 VL-FRGL-D25E (antibody, V domains shown)
VH: B4 VH with S63A
VL: B4 VL
In turn, B9 registered a concentration giving a half-maximal response (EC50) in assay [10] of 34.7 ng/mL.

B10: MPH12 VH / MPH12 VL-FRGL-D25E (antibody, V domains shown)
VH: B4 VH with A23V, I70V, Y80F, Q82L, N84S
VL: B4 VL
Regarding B10, the concentration for a half-maximal effect (EC50) in assay [10] came out at 30.6 ng/mL.
